Source: US20050282743A1, “Molecular interactions in cells” (Arbor Vita Corporation, priority 2001, published 2005)
Blank lines part the entries; values can stand above or below the molecule they belong to. Ends that are not written are not given here. Peptide text beside a SMILES is read from it. * marks the point of attachment. Biotin = O=C1N[C@H]2[C@H](CS[C@H]2CCCCC(=O)*)N1

Legend:
Assay in all cases: G' assay (10 uM PL peptide), results of TABLE 7 and TABLE 12
Type in all cases: binding
[1] = molecular target: T1, PDZ protein (GST-PDZ fusion) (Homo sapiens, UniProt Q12959)
T1 construct: made in house; host or cells: E. coli (DH5alpha, BL21 or JM109)
How it was run: (§1)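 Biotin-PL peptide (N-term label), 10 uM vs GST-PDZ; protein 5 ug/ml by default. A450 nm binned: 1 = 0-1, 2 = 1-2, 3 = 2-3, 4 = 3-4, 5 = >4 on >2 repeats, 0 = no binding.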

[2] = molecular target: T2, PDZ protein (GST-PDZ fusion) (Homo sapiens, UniProt O14907); settings: PDZ TIP1, PDZ Domain 1
T2 construct: made in house; host or cells: E. coli (DH5alpha, BL21 or JM109)
T2 sequence (O14907 1-124): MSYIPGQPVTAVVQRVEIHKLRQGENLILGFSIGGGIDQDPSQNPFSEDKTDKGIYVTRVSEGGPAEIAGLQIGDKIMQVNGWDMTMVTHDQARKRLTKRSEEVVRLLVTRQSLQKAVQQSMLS
How it was run: as §1

[3] = molecular target: T3, PDZ protein (GST-PDZ fusion) (Homo sapiens, UniProt P78352)
T3 construct: made in house; host or cells: E. coli (DH5alpha, BL21 or JM109)
How it was run: as §1

[4] = molecular target: T4, PDZ protein (GST-PDZ fusion) (Homo sapiens, UniProt Q92796); settings: PDZ NeDLG
T4 construct: made in house; host or cells: E. coli (DH5alpha, BL21 or JM109)
T4 sequence (Q92796 1-817): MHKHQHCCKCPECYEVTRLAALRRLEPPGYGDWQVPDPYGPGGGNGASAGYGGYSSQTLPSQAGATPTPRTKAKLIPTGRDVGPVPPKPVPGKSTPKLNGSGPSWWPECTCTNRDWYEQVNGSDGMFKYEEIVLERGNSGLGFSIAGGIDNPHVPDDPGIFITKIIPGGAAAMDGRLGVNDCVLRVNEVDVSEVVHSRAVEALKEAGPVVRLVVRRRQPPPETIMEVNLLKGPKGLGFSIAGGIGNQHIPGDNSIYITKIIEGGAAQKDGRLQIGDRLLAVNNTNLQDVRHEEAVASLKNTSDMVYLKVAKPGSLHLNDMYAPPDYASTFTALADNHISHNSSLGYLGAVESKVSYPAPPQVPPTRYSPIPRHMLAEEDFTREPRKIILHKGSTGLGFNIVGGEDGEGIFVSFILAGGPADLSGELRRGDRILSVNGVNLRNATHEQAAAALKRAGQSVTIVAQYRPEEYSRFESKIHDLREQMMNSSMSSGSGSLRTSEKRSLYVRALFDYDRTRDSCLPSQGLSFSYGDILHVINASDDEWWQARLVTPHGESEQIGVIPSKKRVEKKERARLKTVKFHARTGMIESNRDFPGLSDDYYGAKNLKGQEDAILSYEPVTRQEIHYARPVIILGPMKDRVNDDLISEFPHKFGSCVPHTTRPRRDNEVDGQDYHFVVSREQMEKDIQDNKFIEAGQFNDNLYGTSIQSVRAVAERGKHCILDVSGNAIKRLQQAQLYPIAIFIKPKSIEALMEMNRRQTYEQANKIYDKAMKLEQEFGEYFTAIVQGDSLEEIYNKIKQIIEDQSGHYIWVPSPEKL
How it was run: as §1

[5] = molecular target: T5, PDZ protein (GST-PDZ fusion) (Homo sapiens, UniProt O15018)
T5 construct: made in house; host or cells: E. coli (DH5alpha, BL21 or JM109)
T5 sequence (O15018 whole entry, the tested form may be a part): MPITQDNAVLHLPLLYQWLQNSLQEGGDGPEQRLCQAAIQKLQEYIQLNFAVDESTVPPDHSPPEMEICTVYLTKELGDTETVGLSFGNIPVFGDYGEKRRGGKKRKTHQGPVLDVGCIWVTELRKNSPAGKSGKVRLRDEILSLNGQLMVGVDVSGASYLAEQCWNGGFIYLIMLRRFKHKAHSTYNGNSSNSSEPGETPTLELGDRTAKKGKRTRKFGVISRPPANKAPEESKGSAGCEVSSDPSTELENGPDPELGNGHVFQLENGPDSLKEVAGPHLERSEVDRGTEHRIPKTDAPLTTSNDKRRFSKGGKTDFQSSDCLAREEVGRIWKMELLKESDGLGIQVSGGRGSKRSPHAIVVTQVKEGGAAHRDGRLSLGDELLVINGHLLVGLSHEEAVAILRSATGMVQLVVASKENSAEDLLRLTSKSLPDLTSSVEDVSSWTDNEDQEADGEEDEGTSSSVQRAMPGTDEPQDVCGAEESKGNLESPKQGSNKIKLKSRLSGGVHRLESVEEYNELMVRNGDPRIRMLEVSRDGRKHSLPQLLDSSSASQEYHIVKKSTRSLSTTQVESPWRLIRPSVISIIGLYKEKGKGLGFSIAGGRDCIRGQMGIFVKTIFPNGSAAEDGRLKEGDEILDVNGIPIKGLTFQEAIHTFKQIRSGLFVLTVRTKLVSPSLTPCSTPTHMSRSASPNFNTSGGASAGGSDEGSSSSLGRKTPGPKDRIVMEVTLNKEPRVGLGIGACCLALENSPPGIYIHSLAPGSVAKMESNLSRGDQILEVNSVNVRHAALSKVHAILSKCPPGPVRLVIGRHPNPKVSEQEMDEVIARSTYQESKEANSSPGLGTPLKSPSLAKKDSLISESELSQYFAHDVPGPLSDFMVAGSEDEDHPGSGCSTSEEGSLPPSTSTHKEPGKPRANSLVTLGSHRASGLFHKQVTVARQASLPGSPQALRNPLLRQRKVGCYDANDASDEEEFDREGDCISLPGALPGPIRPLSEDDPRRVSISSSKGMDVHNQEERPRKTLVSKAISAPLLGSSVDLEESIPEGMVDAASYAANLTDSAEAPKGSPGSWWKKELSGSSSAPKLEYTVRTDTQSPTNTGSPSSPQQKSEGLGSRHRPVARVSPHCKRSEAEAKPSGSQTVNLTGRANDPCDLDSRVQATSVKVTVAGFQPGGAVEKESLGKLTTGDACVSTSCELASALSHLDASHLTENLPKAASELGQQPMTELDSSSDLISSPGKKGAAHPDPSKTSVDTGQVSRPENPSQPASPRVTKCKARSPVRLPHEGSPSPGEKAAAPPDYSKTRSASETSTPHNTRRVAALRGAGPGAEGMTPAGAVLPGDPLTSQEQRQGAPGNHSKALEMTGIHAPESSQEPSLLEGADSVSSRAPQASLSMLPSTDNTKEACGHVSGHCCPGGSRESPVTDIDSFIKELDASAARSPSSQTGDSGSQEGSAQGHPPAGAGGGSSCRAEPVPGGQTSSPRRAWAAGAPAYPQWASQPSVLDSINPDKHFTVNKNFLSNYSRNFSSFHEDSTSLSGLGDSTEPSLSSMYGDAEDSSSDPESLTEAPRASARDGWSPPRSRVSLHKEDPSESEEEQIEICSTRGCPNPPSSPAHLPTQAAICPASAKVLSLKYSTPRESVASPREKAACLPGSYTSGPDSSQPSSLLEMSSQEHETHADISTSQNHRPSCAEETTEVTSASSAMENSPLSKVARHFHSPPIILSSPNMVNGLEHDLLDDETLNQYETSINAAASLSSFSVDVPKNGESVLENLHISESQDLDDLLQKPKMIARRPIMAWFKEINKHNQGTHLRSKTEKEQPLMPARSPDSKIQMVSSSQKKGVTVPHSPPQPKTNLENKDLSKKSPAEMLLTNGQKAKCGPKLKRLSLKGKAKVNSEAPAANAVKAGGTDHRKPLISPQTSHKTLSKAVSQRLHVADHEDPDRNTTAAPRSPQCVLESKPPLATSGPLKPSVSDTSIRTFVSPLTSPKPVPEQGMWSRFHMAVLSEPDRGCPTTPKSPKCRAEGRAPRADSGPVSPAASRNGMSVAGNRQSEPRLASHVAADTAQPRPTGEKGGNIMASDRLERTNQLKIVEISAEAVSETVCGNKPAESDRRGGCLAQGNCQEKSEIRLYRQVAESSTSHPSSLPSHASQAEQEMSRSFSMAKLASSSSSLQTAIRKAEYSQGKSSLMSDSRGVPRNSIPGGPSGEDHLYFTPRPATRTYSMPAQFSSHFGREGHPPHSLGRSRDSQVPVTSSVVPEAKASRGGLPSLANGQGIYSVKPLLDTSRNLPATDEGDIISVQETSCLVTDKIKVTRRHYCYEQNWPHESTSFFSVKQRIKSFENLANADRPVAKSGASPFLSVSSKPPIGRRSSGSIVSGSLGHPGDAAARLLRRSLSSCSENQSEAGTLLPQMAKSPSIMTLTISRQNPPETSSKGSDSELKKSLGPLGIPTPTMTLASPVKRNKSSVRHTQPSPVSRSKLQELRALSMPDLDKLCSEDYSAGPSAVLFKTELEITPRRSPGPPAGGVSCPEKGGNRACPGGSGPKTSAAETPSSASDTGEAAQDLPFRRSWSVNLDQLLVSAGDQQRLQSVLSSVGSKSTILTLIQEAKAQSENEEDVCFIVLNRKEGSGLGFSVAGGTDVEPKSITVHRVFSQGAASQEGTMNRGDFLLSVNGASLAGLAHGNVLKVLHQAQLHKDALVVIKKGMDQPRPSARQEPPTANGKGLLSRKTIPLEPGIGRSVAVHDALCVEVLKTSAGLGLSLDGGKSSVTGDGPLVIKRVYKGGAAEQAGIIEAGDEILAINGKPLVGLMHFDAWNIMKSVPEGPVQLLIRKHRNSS
How it was run: as §1

[6] = molecular target: T6, PDZ protein (GST-PDZ fusion) (Homo sapiens, UniProt Q14160); settings: PDZ KIAA0147, PDZ Domain 1
T6 construct: made in house; host or cells: E. coli (DH5alpha, BL21 or JM109)
T6 sequence (Q14160 whole entry, the tested form may be a part): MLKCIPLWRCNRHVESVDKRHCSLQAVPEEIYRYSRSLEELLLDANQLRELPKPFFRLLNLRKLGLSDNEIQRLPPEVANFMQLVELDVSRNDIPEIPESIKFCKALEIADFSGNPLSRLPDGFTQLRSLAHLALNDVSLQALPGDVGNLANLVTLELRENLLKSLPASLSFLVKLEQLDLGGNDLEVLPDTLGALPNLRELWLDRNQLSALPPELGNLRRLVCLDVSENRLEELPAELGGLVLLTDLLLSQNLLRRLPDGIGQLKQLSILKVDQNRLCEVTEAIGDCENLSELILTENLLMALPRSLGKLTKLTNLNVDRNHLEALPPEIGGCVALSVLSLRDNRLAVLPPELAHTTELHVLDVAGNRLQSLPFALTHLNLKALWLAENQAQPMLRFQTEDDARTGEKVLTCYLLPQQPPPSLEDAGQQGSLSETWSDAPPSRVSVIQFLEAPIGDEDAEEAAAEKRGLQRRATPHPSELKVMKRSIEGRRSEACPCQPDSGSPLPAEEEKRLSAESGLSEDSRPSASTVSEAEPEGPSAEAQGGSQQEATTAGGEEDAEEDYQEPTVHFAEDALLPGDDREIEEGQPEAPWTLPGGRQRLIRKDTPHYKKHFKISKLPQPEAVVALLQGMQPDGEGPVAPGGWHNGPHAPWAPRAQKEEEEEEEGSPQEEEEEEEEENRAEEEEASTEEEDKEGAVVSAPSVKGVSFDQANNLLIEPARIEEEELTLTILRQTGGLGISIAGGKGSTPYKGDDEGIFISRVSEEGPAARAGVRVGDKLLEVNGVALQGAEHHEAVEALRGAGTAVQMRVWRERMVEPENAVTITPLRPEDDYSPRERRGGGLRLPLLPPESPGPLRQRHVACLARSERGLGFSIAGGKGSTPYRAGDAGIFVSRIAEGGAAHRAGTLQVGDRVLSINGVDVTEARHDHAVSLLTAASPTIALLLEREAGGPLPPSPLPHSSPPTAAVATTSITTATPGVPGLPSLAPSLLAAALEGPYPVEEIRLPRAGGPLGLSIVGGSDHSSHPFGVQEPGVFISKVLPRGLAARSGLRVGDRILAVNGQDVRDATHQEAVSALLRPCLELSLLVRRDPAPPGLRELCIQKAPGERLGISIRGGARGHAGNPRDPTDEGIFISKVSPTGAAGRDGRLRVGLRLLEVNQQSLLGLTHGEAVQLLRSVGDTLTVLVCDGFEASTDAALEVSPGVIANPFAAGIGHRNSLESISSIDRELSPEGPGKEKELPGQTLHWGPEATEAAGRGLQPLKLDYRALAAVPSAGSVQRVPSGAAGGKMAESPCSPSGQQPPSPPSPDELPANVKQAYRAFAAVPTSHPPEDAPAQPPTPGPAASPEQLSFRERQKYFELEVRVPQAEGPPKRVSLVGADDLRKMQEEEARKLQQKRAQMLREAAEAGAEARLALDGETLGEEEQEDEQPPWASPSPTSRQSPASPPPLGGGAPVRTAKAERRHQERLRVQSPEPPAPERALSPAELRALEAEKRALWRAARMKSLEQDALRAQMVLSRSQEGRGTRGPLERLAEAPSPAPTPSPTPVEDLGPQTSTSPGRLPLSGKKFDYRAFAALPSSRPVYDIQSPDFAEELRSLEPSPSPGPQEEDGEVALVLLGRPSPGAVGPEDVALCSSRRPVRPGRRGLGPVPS
How it was run: as §1

[7] = molecular target: T7, PDZ protein (GST-PDZ fusion) (Homo sapiens, UniProt Q86UL8); settings: PDZ Atrophin-1 Inter. Prot.
T7 construct: made in house; host or cells: E. coli (DH5alpha, BL21 or JM109)
How it was run: as §1

[8] = molecular target: T8, PDZ protein (GST-PDZ fusion) (Homo sapiens, UniProt Q8NI35); settings: PDZ INADL
T8 construct: made in house; host or cells: E. coli (DH5alpha, BL21 or JM109)
How it was run: as §1

Molecule: GPVPGEPAKPKTSAHHATFV (Biotin-GPVPGEPAKPKTSAHHATFV)
Classification ([1]; PDZ DLG1, PDZ Domain 1, 2): 1 (A450 nm 0-1) | Classification [2]: 1 (A450 nm 0-1)

Molecule: CKR5_HUMAN (ERASSVYTRSTGEQEISVGL)
Classification [2]: 1 (A450 nm 0-1)

Molecule: SLKPGTVLPPPPYRHRNTVV (Biotin-SLKPGTVLPPPPYRHRNTVV) [ErbB-4 receptor]
Classification ([3]; PDZ PSD95, PDZ Domain 1, 2, 3): 1 (A450 nm 0-1) | Classification ([4]; PDZ Domain 1, 2): 1 (A450 nm 0-1) | Classification ([1]; PDZ DLG1, PDZ Domain 1, 2): 1 (A450 nm 0-1)

Molecule: CC(C)C[C@H](NC(=O)[C@H](C)NC(=O)[C@@H](NC(=O)[C@@H](NC(=O)[C@H](Cc1c[nH]cn1)NC(=O)[C@H](CC(C)C)NC(=O)CNC(=O)[C@H](CCC(N)=O)NC(=O)CNC(=O)CNC(=O)[C@H](C)NC(=O)[C@H](C)NC(=O)[C@H](CCCNC(=N)N)NC(=O)[C@H](C)NC(=O)[C@H](CO)NC(=O)[C@H](CC(=O)O)NC(=O)[C@H](CC(=O)O)NC(=O)[C@H](Cc1c[nH]c2ccccc12)NC(=O)[C@H](C)NC(=O)CCCC[C@@H]1SC[C@@H]2NC(=O)N[C@@H]21)C(C)C)[C@@H](C)O)C(=O)O [LPAP] (Biotin-AWDDSARAAGGQGLHVTAL-OH; C-terminus assumed)
Classification [6]: 3 (A450 nm 2-3) | Classification ([7]; PDZ Domain 5): 2 (A450 nm 1-2)

Molecule: QATSRNGHSARQHVVADTEL (Biotin-QATSRNGHSARQHVVADTEL) [CD34]
Classification [6]: 1 (A450 nm 0-1) | Classification ([7]; PDZ Domain 5): 1 (A450 nm 0-1)

Molecule: A2AA_HUMAN (modified) (Biotin-HDFRRAFKKILARGDRKRIV; not fully specified)
Classification ([5]; PDZ AIPC, PDZ Domain 1): 2 (A450 nm 1-2) | Classification ([7]; PDZ Domain 5): 1 (A450 nm 0-1) | Classification ([7]; PDZ Domain 6): 1 (A450 nm 0-1) | Classification ([8]; PDZ Domain 3): 2 (A450 nm 1-2) | Classification ([8]; PDZ Domain 4): 1 (A450 nm 0-1)

Molecule: CC[C@H](C)[C@H](NC(=O)[C@H](C)NC(=O)[C@H](CC(C)C)NC(=O)[C@H](Cc1c[nH]c2ccccc12)NC(=O)[C@H](Cc1c[nH]cn1)NC(=O)[C@H](CCC(N)=O)NC(=O)[C@H](CC(C)C)NC(=O)[C@H](CCC(N)=O)NC(=O)[C@H](Cc1ccccc1)NC(=O)[C@H](CCC(N)=O)NC(=O)[C@H](CCCNC(=N)N)NC(=O)[C@@H](NC(=O)[C@H](CC(=O)O)NC(=O)[C@H](CCCNC(=N)N)NC(=O)[C@H](CCC(N)=O)NC(=O)[C@H](C)NC(=O)[C@@H](NC(=O)[C@H](CC(C)C)NC(=O)[C@H](Cc1c[nH]cn1)NC(=O)[C@H](Cc1c[nH]cn1)NC(=O)CCCC[C@@H]1SC[C@@H]2NC(=O)N[C@@H]21)C(C)C)[C@@H](C)CC)C(=O)O [noradrenaline transporter] (Biotin-HHLVAQRDIRQFQLQHWLAI-OH; C-terminus assumed)
Classification ([5]; PDZ AIPC, PDZ Domain 1): 2 (A450 nm 1-2) | Classification ([8]; PDZ Domain 3): 3 (A450 nm 2-3)

Molecule: ISGTPTSTMVHGMTSSSSVV (Biotin-ISGTPTSTMVHGMTSSSSVV) [Clasp-2]
Classification ([3]; PDZ PSD95, PDZ Domain 1): 1 (A450 nm 0-1) | Classification ([5]; PDZ AIPC, PDZ Domain 1): 1 (A450 nm 0-1) | Classification ([4]; PDZ Domain 2): 1 (A450 nm 0-1) | Classification ([1]; PDZ DLG1, PDZ Domain 1): 1 (A450 nm 0-1) | Classification ([1]; PDZ DLG1, PDZ Domain 2): 1 (A450 nm 0-1) | Classification ([8]; PDZ Domain 8): 1 (A450 nm 0-1)

Molecule: LASKSAEEGKQIPDSLSTDL (Biotin-LASKSAEEGKQIPDSLSTDL) [Dock2]
Classification [6]: 1 (A450 nm 0-1) | Classification ([7]; PDZ Domain 5): 1 (A450 nm 0-1) | Classification ([8]; PDZ Domain 3): 1 (A450 nm 0-1)

The remaining lines, values ahead:

Classification ([5]; PDZ AIPC, PDZ Domain 1): 1 (A450 nm 0-1) | Classification ([5]; PDZ KIAA0300, PDZ Domain 1): 3 (A450 nm 2-3)
Molecule: KTMPAAMFRLLTGQETPLYI (Biotin-KTMPAAMFRLLTGQETPLYI) [MINT-2]

Classification ([5]; PDZ AIPC, PDZ Domain 1): 1 (A450 nm 0-1)
Molecule: VHDAESSDEDGYDWGPATDL (Biotin-VHDAESSDEDGYDWGPATDL) [zona occludens 3 (ZO-3)]

Classification ([5]; PDZ AIPC, PDZ Domain 1): 1 (A450 nm 0-1) | Classification ([5]; PDZ AIPC, PDZ Domain 4): 1 (A450 nm 0-1) | Classification ([5]; PDZ KIAA0300, PDZ Domain 1): 1 (A450 nm 0-1) | Classification ([5]; PDZ KIAA0300, PDZ Domain 2): 1 (A450 nm 0-1) | Classification ([7]; PDZ Domain 5): 1 (A450 nm 0-1) | Classification ([8]; PDZ Domain 3): 1 (A450 nm 0-1)
Molecule: CC[C@H](C)[C@H](NC(=O)[C@H](Cc1ccc(O)cc1)NC(=O)[C@H](CC(C)C)NC(=O)[C@H](CCC(N)=O)NC(=O)[C@H](Cc1c[nH]cn1)NC(=O)[C@H](CO)NC(=O)[C@H](C)NC(=O)[C@H](CC(C)C)NC(=O)[C@@H](NC(=O)[C@H](CC(=O)O)NC(=O)[C@H](CCSC)NC(=O)[C@H](Cc1ccccc1)NC(=O)[C@@H]1CCCN1C(=O)[C@H](CCCNC(=N)N)NC(=O)[C@@H](NC(=O)[C@H](CC(C)C)NC(=O)[C@H](CC(N)=O)NC(=O)[C@H](CC(=O)O)NC(=O)[C@@H](NC(=O)[C@H](CO)NC(=O)CCCC[C@@H]1SC[C@@H]2NC(=O)N[C@@H]21)[C@@H](C)O)C(C)C)[C@@H](C)O)C(=O)O [presenilin-2] (Biotin-STDNLVRPFMDTLASHQLYI-OH; C-terminus assumed)

Classification ([8]; PDZ Domain 8): 1 (A450 nm 0-1)
Molecule: PPATPSPRLALPAHHNATRL (Biotin-PPATPSPRLALPAHHNATRL) [Na+/Pi cotransporter 2]

Classification ([7]; PDZ Domain 5): 1 (A450 nm 0-1)
Molecule: CC[C@H](C)[C@H](NC(=O)[C@H](CO)NC(=O)[C@H](CCC(=O)O)NC(=O)[C@H](Cc1ccc(O)cc1)NC(=O)[C@H](CC(=O)O)NC(=O)[C@H](CC(N)=O)NC(=O)[C@H](CCC(=O)O)NC(=O)[C@H](CCCCN)NC(=O)CCCC[C@@H]1SC[C@@H]2NC(=O)N[C@@H]21)C(=O)N[C@@H](CO)C(=O)N[C@@H](CC(=O)O)C(=O)N[C@@H](CC(C)C)C(=O)N[C@@H](CCC(N)=O)C(=O)N[C@@H](CCC(N)=O)C(=O)NCC(=O)N[C@@H](CCCNC(=N)N)C(=O)N[C@@H](CC(=O)O)C(=O)N[C@H](C(=O)N[C@H](C(=O)N[C@@H](CCCNC(=N)N)C(=O)N[C@@H](CC(C)C)C(=O)O)[C@@H](C)O)[C@@H](C)CC [PAG] (Biotin-KENDYESISDLQQGRDITRL-OH; C-terminus assumed)

Classification [2]: 1 (A450 nm 0-1)
Molecule: ARHRVTSYTSSSVNVSSNL (Biotin-ARHRVTSYTSSSVNVSSNL) [IL-8RB]

Classification ([5]; PDZ AIPC, PDZ Domain 1): 1 (A450 nm 0-1) | Classification ([5]; PDZ KIAA0300, PDZ Domain 1): 4 (A450 nm 3-4) | Classification ([8]; PDZ Domain 8): 1 (A450 nm 0-1)
Molecule: CC[C@H](C)[C@H](NC(=O)[C@H](Cc1ccc(O)cc1)NC(=O)[C@@H](NC(=O)[C@@H]1CCCN1C(=O)[C@H](CCC(N)=O)NC(=O)[C@H](CCC(=O)O)NC(=O)[C@H](CCC(N)=O)NC(=O)[C@H](C)NC(=O)[C@@H](NC(=O)[C@H](CC(C)C)NC(=O)[C@H](CC(C)C)NC(=O)[C@H](CCCNC(=N)N)NC(=O)[C@H](Cc1ccc(O)cc1)NC(=O)[C@H](CCSC)NC(=O)[C@H](C)NC(=O)[C@H](C)NC(=O)[C@@H]1CCCN1C(=O)[C@H](CCSC)NC(=O)[C@@H](NC(=O)[C@H](CCCCN)NC(=O)CCCC[C@@H]1SC[C@@H]2NC(=O)N[C@@H]21)[C@@H](C)O)[C@@H](C)O)C(C)C)C(=O)O [MINT-1] (Biotin-KTMPAAMYRLLTAQEQPVYI-OH; C-terminus assumed)
